In patent US20220041711A1 (NGM BIOPHARMACEUTICALS, published 2022):
Where two headings read alike, the source gives them in different places.

Experiments:
[1] = biological target: T1, cyno LAIR-1-CD3ζ chimeric receptor on NFAT-GFP reporter cells (cynomolgus monkey; human); assay: cell-based or functional assay
[2] = biological target: T2, human LAIR-1-CD3ζ chimeric receptor on NFAT-GFP reporter cells (human, UniProt P20963 31-164, limits assumed); assay: cell-based or functional assay
[3] = biological target: T2, human LAIR-1-CD3ζ chimeric receptor on …; assay: cell-based or functional assay; remark: listed apart in the source
[4] = biological target: T1, cyno LAIR-1-CD3ζ chimeric receptor on …; assay: cell-based or functional assay; remark: listed apart in the source
[5] = biological target: T2, human LAIR-1-CD3ζ chimeric receptor on …; assay: cell-based or functional assay; remark: listed apart in the source
[6] = biological target: T1, cyno LAIR-1-CD3ζ chimeric receptor on …; assay: cell-based or functional assay; remark: listed apart in the source
[7] = biological target: T2, human LAIR-1-CD3ζ chimeric receptor on …; assay: cell-based or functional assay; remark: listed apart in the source
[8] = biological target: T3, human LAIR-1b (alternative isoform of human LAIR-1) on transfected 293T cells (human, UniProt Q6GTX8 22-287); assay: flow cytometry on cells expressing human LAIR-1b, PE anti-human Fc secondary, MFI (panel Human LAIR1 (Truncated) Cells)
T3 chain: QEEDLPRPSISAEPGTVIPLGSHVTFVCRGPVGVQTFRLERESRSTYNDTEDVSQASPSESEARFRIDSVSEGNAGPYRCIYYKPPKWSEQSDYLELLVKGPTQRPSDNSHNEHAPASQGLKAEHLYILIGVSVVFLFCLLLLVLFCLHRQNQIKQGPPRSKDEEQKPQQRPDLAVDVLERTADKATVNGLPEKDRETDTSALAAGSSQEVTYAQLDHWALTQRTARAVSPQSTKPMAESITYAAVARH

[9] = biological target: T2, human LAIR-1-CD3ζ chimeric receptor on …; assay: flow cytometry on human LAIR-1 reporter cells, PE anti-human Fc secondary, MFI (panel Human LAIR1 Cells)
[10] = biological target: T2, human LAIR-1-CD3ζ chimeric receptor on …; assay: cell-based or functional assay; remark: listed apart in the source
[11] = biological target: T4, human LAIR-1, endogenous on human cells (human, UniProt Q6GTX8 22-287); assay: flow cytometry of human PBMCs (9 donors) with Alexa Fluor 488-labelled ch47H1
T4 construct: Native receptor of primary human cells and of the THP1 line; isoform on the cells not determined; also called LAIR-1 on PBMC subsets, THP1 cells, monocyte-derived dendritic cells, macrophages and T-cells
T4 chain: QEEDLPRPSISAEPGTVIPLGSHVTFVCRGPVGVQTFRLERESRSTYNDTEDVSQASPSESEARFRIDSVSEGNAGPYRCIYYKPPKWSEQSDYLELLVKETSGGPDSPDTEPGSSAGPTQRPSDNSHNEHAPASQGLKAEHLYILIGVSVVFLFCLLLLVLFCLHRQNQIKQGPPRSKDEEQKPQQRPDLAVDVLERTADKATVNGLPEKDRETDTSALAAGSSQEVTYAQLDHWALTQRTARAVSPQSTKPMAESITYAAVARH

cyno LAIR-1-ECD = biological target: T5, cyno LAIR-1-ECD (cynomolgus monkey); assay: SPR (Biacore) as in Example 2
T5 construct: Recombinant, expressed in mammalian cells; also called extracellular region of cyno LAIR-1
T5 chain: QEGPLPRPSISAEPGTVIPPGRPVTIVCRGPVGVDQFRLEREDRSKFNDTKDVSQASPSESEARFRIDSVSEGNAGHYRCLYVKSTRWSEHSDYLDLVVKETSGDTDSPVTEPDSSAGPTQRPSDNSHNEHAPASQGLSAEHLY

human LAIR-1-ECD = biological target: T6, human LAIR-1-ECD (human, UniProt Q6GTX8 22-165); assay: SPR (Biacore) as in Example 2
T6 construct: Recombinant, expressed in mammalian cells; also called extracellular region of human LAIR-1
T6 chain: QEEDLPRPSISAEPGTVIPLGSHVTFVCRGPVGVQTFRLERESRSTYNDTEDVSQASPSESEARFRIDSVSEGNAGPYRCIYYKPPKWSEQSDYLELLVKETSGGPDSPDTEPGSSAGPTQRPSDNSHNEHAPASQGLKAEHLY

human LAIR-1-Fc = biological target: T7, human LAIR-1-Fc (human, UniProt Q6GTX8 22-165); assay: ELISA blocking: plate coated with 5 µg/mL human collagen type 1, antibody titrated, 1 µg/mL biotinylated human LAIR-1-Fc, streptavidin-HRP, OD650
T7 construct: also called biotinylated human LAIR-1-Fc; not shown: a Fc region
T7 chain: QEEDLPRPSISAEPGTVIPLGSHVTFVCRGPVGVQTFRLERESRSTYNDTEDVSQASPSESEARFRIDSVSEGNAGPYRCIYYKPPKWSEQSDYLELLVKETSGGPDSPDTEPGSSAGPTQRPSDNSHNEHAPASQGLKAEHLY

[12] = biological target: T1, cyno LAIR-1-CD3ζ chimeric receptor on …; assay: flow cytometry on cyno LAIR-1 reporter cells, PE anti-human Fc secondary, MFI (panel Cynomolgus Monkey LAIR1 Cells)
[13] = biological target: T8, mouse LAIR-1-hFc (Sino Biological) (mouse, UniProt Q8BG84 22-144, limits assumed); assay: ELISA blocking: plate coated with 2 µg/mL mouse collagen type 1, antibody pre-incubated with 2 µg/mL mouse LAIR-1-hFc, HRP anti-human Fc, OD650 (left panel)
T8 construct: Bought; also called mouse LAIR-1-Fc; not shown: human Fc (hFc)
T8 sequence: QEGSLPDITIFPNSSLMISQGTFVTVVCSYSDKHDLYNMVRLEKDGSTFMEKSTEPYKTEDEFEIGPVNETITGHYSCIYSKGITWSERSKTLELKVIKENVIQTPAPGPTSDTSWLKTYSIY

[14] = biological target: T8, mouse LAIR-1-hFc (Sino Biological); assay: flow cytometry blocking: antibody pre-incubated with 2 µg/mL mouse LAIR-1-hFc, added to HEK-293T cells transfected with mouse MARCO, Alexa Fluor 647 anti-human Fc, MFI (right panel)
[15] = biological target: T9, mouse LAIR-1-PILRβ chimeric receptor on GFP reporter cells (mouse); assay: cell-based or functional assay
[16] = biological target: T9, mouse LAIR-1-PILRβ chimeric receptor on …; assay: cell-based or functional assay; remark: listed apart in the source

B1: anti-LAIR-1 antibody ch47H1 (antibody, V domains shown)
VH: EVQLVETGGGLVQPKGSLKLSCAASGFTFNINAMNWVRQAPGKGLEWVARIRTKNNNYATFYADSVKDRFTISRDDSQSMLYLQMNNLKTDDTAMYYCVRDRAGFFAYWGQGTPVTVSA
VL: DIQMTQSPASQSASLGESVTITCLASQTIGTWLGWYRQKPGKSPQLLIYAATSLADGVPSRFSGSGSGTKFSFKISSLQAEDFVIYYCQQLYSTPLTFGSGTKLEIK
notes: The prefix 'ch' is not defined; detected with anti-human Fc secondary antibody
With B1 the “IC50 (read off the curve): % GFP+ cyno LAIR-1 reporter cells on polymerized collagen matrix” value [1] was roughly 200 pM, the “IC50 (read off the curve): % GFP+ human LAIR-1 reporter cells on polymerized collagen matrix” value [2] was roughly 30 pM and the “IC50 (read off the curve): % GFP+ human LAIR-1 reporter cells on coated MARCO-his” value [3] was roughly 70 pM. For the same binder, the “IC50 (read off the curve): % GFP+ human LAIR-1 reporter cells on coated collagen 1” value [3] was roughly 90 pM, the “IC50 (read off the curve): % GFP+ human LAIR-1 reporter cells on coated collagen 4” value [3] was roughly 60 pM and the “IC50 (read off the curve): % GFP+ cyno LAIR-1 reporter cells on coated MARCO-his” value [4] was roughly 100 pM. The “IC50 (read off the curve): % GFP+ cyno LAIR-1 reporter cells on coated collagen 1” value [4] was roughly 200 pM, the “IC50 (read off the curve): % GFP+ cyno LAIR-1 reporter cells on coated collagen 4” value [4] was roughly 200 pM and the “IC50 (read off the curve): % GFP+ human LAIR-1 reporter cells on coated MARCO-his” value [5] was roughly 20 pM. The “IC50 (read off the curve): % GFP+ human LAIR-1 reporter cells on coated collagen 1” value [5] was roughly 20 pM, the “IC50 (read off the curve): % GFP+ human LAIR-1 reporter cells on coated collagen 4” value [5] was roughly 20 pM and the “IC50 (read off the curve): % GFP+ cyno LAIR-1 reporter cells co-cultured with bEnd.3 cells” value [6] was roughly 100 pM. The “IC50 (read off the curve): % GFP+ human LAIR-1 reporter cells co-cultured with bEnd.3 cells” value [7] was roughly 20 pM, the “EC50 (read off the curve)” value [8] was roughly 1 nM and the “EC50 (read off the curve)” value [9] was roughly 200 pM. The “IC50 (read off the curve): % GFP+ human LAIR-1 reporter cells on coated C1 complex” value [10] was roughly 20 pM, the “IC50 (read off the curve): % GFP+ human LAIR-1 reporter cells on coated COLEC12” value [10] was roughly 50 pM and the “IC50 (read off the curve): % GFP+ human LAIR-1 reporter cells on coated MARCO-his” value [10] was roughly 30 pM. For the same binder, the “IC50 (read off the curve): % GFP+ human LAIR-1 reporter cells on coated MBL” value [10] was roughly 60 pM, the “IC50 (read off the curve): % GFP+ human LAIR-1 reporter cells on coated SP-D” value [10] was roughly 30 pM and the “IC50 (read off the curve): % GFP+ human LAIR-1 reporter cells on coated collagen 1” value [10] was roughly 20 pM. For the same binder, the “IC50 (read off the curve): % GFP+ human LAIR-1 reporter cells on coated collagen 4” value [10] was roughly 20 pM, the binding result [11] was “binds” and the Kd (cyno LAIR-1-ECD) was 4.6 nM. For the same binder, the koff (cyno LAIR-1-ECD) was 0.001 s⁻¹, the kon (cyno LAIR-1-ECD) was 220000 M⁻¹ s⁻¹ and the Kd (human LAIR-1-ECD) was 0.34 nM. For the same binder, the koff (human LAIR-1-ECD) was 0.00051 s⁻¹, the kon (human LAIR-1-ECD) was 1.5e+06 M⁻¹ s⁻¹ and the “IC50 (read off the curve)” value (human LAIR-1-Fc) was roughly 3 nM. For the same binder, the “EC50 (read off the curve)” value [12] was roughly 700 pM.

B2: anti-mouse LAIR-1 antibody 43H2 (antibody, V domains shown)
VH: EVQLVESGGGLVQPGRSLKVSCAASGFTFSNYGIHWIRQAPTKGLEWVASISPSGRSTYFRDSVKGRFTISRDNAKNTLYLQLDSLRSEDTATYYCATGINYSSFDYWGQGVMVTVSS
VL: DIVMTQSPTSMSISVGDRVTMNCKASQNVGSHVDWYQQKTGQSPKLLISTASNRYTGVPDRFTGSGSGTDFTFTINNMQTEDLAVYYCMQSNSYPPTFGGGTKLELK
notes: Raised in rats
For B2, the “IC50 (read off the curve)” value [13] was roughly 80 nM, the “IC50 (read off the curve)” value [14] was roughly 20 nM and the “IC50 (read off the curve): % GFP+ mouse LAIR-1 reporter cells co-cultured with bEnd.3 cells” value [15] was roughly 20 pM. For the same binder, the “IC50 (read off the curve): % GFP+ mouse LAIR-1 reporter cells on coated human MARCO-his” value [16] was roughly 100 pM, the “IC50 (read off the curve): % GFP+ mouse LAIR-1 reporter cells on coated mouse collagen type 1” value [16] was roughly 40 pM and the “IC50 (read off the curve): % GFP+ mouse LAIR-1 reporter cells on coated mouse collagen type 4” value [16] was roughly 20 pM.
